Assay results as given in the supplement of paper PMC9112550, “Optimization of the antimicrobial peptide Bac7 by deep mutational scanning” (BMC Biology, 2022).

These sequences were tested on Escherichia coli TOP10 (assay: shrunken log2 fold change of peptide-encoding DNA abundance (4.5 h post-induction vs induction); higher = less antimicrobial activity (less host growth inhibition)). Settings: time post-induction: 4.5 h; library: site-saturation at positions 5, 18, 19, 20.
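Further: peptides expressed intracellularly from a pBAD plasmid library in pooled LB shake-flask culture, induced with 0.3% L-arabinose, DNA abundance read by NGS, three biological replicates, DESeq2 with apeglm shrinkage.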

Sequence | shrunken log2 fold change
RRIRTRPPRLPRPRPRPGFSPRP | -0.016
RRIRRRPPRLPRPRPRPFWIPRP | 0.0724
RRIRQRPPRLPRPRPRPHMMPRP | -0.526
RRIRHRPPRLPRPRPRPDQYPRP | 0.0188
RRIRIRPPRLPRPRPRPPCRPRP | 0.0264
RRIRMRPPRLPRPRPRPKREPRP | 0.055
RRIRVRPPRLPRPRPRPCPKPRP | -0.0457
RRIRHRPPRLPRPRPRPWWMPRP | 0.0619
RRIRFRPPRLPRPRPRPDMMPRP | -0.0389
RRIRYRPPRLPRPRPRPLNLPRP | -0.369
RRIRVRPPRLPRPRPRPQYYPRP | -0.238
RRIRARPPRLPRPRPRPTLIPRP | 0.573
RRIRARPPRLPRPRPRPCCQPRP | 0.102
RRIRQRPPRLPRPRPRPHHEPRP | 0.0974
RRIRWRPPRLPRPRPRPYAKPRP | -0.41
RRIRYRPPRLPRPRPRPVNAPRP | -0.361
RRIRPRPPRLPRPRPRPAYTPRP | -0.116
RRIRPRPPRLPRPRPRPNEYPRP | -0.783
RRIRPRPPRLPRPRPRPTVGPRP | 0.555
RRIRCRPPRLPRPRPRPDLPPRP | -0.265
RRIRLRPPRLPRPRPRPDHSPRP | -0.0489
RRIRNRPPRLPRPRPRPRFQPRP | 0.0932
RRIRKRPPRLPRPRPRPHWDPRP | 0.0835
RRIRHRPPRLPRPRPRPWFCPRP | -0.583
RRIRARPPRLPRPRPRPWPHPRP | -0.0357

Sequence | shrunken log2 fold change
RRIRCRPPRLPRPRPRPYLGPRP | -0.213
RRIRRRPPRLPRPRPRPVSDPRP | 0.444
RRIRSRPPRLPRPRPRPRHCPRP | 0.101
RRIRRRPPRLPRPRPRPAIPPRP | -0.0158
RRIRIRPPRLPRPRPRPSQDPRP | -0.31
RRIRVRPPRLPRPRPRPRHHPRP | -0.0962
RRIRTRPPRLPRPRPRPLGNPRP | -0.159
RRIRARPPRLPRPRPRPWQAPRP | -0.0548
RRIRIRPPRLPRPRPRPSEMPRP | -0.553
RRIRGRPPRLPRPRPRPHQGPRP | -0.0236
RRIRFRPPRLPRPRPRPFDHPRP | -0.281
RRIRFRPPRLPRPRPRPEDDPRP | -0.18
RRIRPRPPRLPRPRPRPAQVPRP | -0.0714
RRIRRRPPRLPRPRPRPGIWPRP | 0.455
RRIRFRPPRLPRPRPRPWWSPRP | -0.18
RRIRTRPPRLPRPRPRPEIAPRP | -0.11
RRIRFRPPRLPRPRPRPAMRPRP | 0.307
RRIRFRPPRLPRPRPRPSACPRP | 0.0977
RRIRRRPPRLPRPRPRPEEKPRP | -0.00133
RRIRVRPPRLPRPRPRPYSKPRP | 0.12
RRIRKRPPRLPRPRPRPHGYPRP | 0.0773
RRIRARPPRLPRPRPRPLLDPRP | 0.788
RRIRCRPPRLPRPRPRPDCMPRP | 0.0384
RRIRDRPPRLPRPRPRPHDWPRP | 0.807
RRIRMRPPRLPRPRPRPFCEPRP | 0.148

Sequence | shrunken log2 fold change
RRIRPRPPRLPRPRPRPTHDPRP | 0.258
RRIRQRPPRLPRPRPRPVAQPRP | 0.24
RRIRNRPPRLPRPRPRPTLMPRP | 0.0843
RRIRHRPPRLPRPRPRPTEQPRP | -0.185
RRIRGRPPRLPRPRPRPKVSPRP | 0.787
RRIRCRPPRLPRPRPRPVCKPRP | -0.238
RRIRDRPPRLPRPRPRPCKDPRP | -0.144
RRIRCRPPRLPRPRPRPRTPPRP | 0.571
RRIRSRPPRLPRPRPRPQVRPRP | 0.0563
RRIRSRPPRLPRPRPRPAEEPRP | 0.164
RRIRPRPPRLPRPRPRPGNHPRP | -0.16
RRIRIRPPRLPRPRPRPRDTPRP | -0.534
RRIRGRPPRLPRPRPRPTPFPRP | 0.629
RRIRMRPPRLPRPRPRPMGFPRP | -0.0135
RRIRERPPRLPRPRPRPGEFPRP | 0.033
RRIRRRPPRLPRPRPRPWTPPRP | 0.568
RRIRCRPPRLPRPRPRPTFVPRP | -0.161
RRIRVRPPRLPRPRPRPMDTPRP | -0.171
RRIRQRPPRLPRPRPRPNNLPRP | -0.401
RRIRGRPPRLPRPRPRPMMDPRP | 0.66
RRIRWRPPRLPRPRPRPSARPRP | 0.54
RRIRARPPRLPRPRPRPINRPRP | 0.0108
RRIRGRPPRLPRPRPRPGDSPRP | 0.276
RRIRCRPPRLPRPRPRPSAEPRP | 0.153
RRIRCRPPRLPRPRPRPLWEPRP | 0.00378
